Columns and labels:
[1] = molecular target: 6His-Prx1 (human peroxyredoxin Prx1), superoxidized in the cysteine sulfinic acid form (UniProt Q06830)
[2] = molecular target: 6His-Prx2 (human peroxyredoxin Prx2), superoxidized in the cysteine sulfinic acid form (UniProt P32119)
[3] = molecular target: T1, Tsa1 (S. cerevisiae 2-Cys peroxyredoxin) (UniProt P34760)
T1 sequence: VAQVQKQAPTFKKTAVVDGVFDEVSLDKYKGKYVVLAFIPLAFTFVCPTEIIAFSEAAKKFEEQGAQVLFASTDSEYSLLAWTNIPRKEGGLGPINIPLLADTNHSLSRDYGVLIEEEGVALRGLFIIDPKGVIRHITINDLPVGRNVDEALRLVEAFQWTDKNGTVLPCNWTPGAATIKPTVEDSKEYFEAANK

hSrx1 (human sulfiredoxin), sequence (chain, as listed by the source): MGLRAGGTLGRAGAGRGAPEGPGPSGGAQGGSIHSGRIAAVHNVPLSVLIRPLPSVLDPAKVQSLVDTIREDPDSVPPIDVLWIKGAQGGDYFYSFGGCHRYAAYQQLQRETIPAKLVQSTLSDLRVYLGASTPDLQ
6His-Prx2 (human peroxyredoxin Prx2), superoxidized in the cysteine sulfinic acid form, sequence (P32119 whole entry): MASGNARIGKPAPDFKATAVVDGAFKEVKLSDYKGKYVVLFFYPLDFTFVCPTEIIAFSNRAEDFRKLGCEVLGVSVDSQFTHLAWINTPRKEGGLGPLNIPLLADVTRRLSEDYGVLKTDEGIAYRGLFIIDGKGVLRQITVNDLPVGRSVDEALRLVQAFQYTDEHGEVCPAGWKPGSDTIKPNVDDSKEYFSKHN
6His-Prx1 (human peroxyredoxin Prx1), superoxidized in the cysteine sulfinic acid form, sequence (Q06830 whole entry): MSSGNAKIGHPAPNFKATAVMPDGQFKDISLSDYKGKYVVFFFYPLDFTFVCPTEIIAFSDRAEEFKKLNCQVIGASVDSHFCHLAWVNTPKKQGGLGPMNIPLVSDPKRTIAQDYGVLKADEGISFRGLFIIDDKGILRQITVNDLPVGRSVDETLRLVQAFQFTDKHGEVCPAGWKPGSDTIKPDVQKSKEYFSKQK

Row | Substance | reduction of superoxidized 6His-Prx1 in vitro [1] | reduction of superoxidized 6His-Prx2 in vitro [2] | reduction of the Cys-SO2H form of Tsa1 [3]
1 | hSrx1 (human sulfiredoxin) | shows the ability of hSrx1, expressed from Baculovirus in High Five cells, to reduce the human peroxyredoxins 6His-Prx1 and 6His-Prx2 superoxidized in the cysteine sulfinic acid form | shows the ability of hSrx1, expressed from Baculovirus in High Five cells, to reduce the human peroxyredoxins 6His-Prx1 and 6His-Prx2 superoxidized in the cysteine sulfinic acid form | –
2 | HA-tagged Srx1^C84S (S. cerevisiae Srx1 with Cys84 changed to serine) | – | – | completely eliminates the formation of the disulfide bridge between Srx1 and Tsa1 and the reduction of the Cys-SO2H form of Tsa1

Reference: patent publication US20110189154
